Data published in patent publication US20250179550A1, “Methods to imbue polymeric materials with new structures and functions” (The Regents of the University of California, priority 2022, published 2025).

Columns and labels:
[1] = Temperature stability of MicD-F; format: physicochemical
MicD-F = assay: Reaction of protein substrates (mCherry and Rop variants) with MicD-F, LC-MS deconvoluted mass; format: biochemical, Microcystis aeruginosa; conditions: for cyclodehydration of mCherry variants to thiazoline (loss of water) / cyclodehydration of Rop variants to thiazoline: 50 mol % MicD-F; for cyclodehydration of mCherry variants to thiazoline (loss of water): 24 hours
Method: Reactions of proteins with MicD-F were performed in the manner described above with minor modifications. Namely, the substrate stock was a 1 mM solution of protein in 20 mM HEPES, 150 mM NaCl, 1 mM TCEP, pH 7.4.
(§1) Unprocessed reaction mixture (1 μL) was used for LC-MS analysis which was performed on an Agilent 1290 Infinity II HPLC connected to an Agilent 6530B QTOF AJS-ESI. The mobile phase for LC-MS was water and acetonitrile with 0.1% (v/v) formic acid and a flow rate of 0.4 mL/min. Each sample was injected onto a Poroshell 300SB-C8 column (2.1×75 mm, 5-Micron, room temperature, Agilent) using a linear gradient from 5 to 55% acetonitrile over 8 minutes after an initial hold at 5% acetonitrile for 2 minutes (0.4 mL/min). The following parameters were used during acquisition: Fragmentor voltage 225 V, gas temperature 300° C., gas flow 10 L/min, sheath gas temperature 350° C., sheath gas flow 11 L/min, nebulizer pressure 35 psi, skimmer voltage 65 V, Vcap 5000 V, 1 spectra/s. Intact protein masses were obtained via deconvolution using the Maximum Entropy algorithm in Mass Hunter Bioconfirm (V10, Agilent).

MicD-F and ArtGox = assay: Reaction of protein substrates with MicD-F and ArtGox in tandem, LC-MS deconvoluted mass; format: biochemical, Microcystis aeruginosa; Arthrospira platensis; conditions: 50 mol % MicD-F, 80 mol % ArtGox, 24 hours, pH 9.0, 37° C.
Method: Reactions of proteins with MicD-F and ArtGox were performed in the manner described above with minor modifications. The substrate stock was a 1 mM solution of protein in 20 mM HEPES, 150 mM NaCl, 1 mM TCEP, pH 7.4. Reactions were carried out at either 25° C. or 37° C. as indicated.
as §1

[2] = Circular dichroism of Rop variants (wavelength scans and temperature melts); format: physicochemical; conditions: CD at 222 nm; for TM (melting temperature): 20 μM, 10 mM phosphate, 100 mM NaCl, 150 μM TCEP, pH 7.0
Method: RopN, RopM, and RopC were exchanged into CD buffer (10 mM phosphate, 100 mM NaCl, 150 μM TCEP, pH 7.0) using Amicon Ultra-0.5 mL centrifugal filters (MilliporeSigma, Burlington, MA) with a 3 kDa molecular weight cut-off according to the manufacturer's instructions and then diluted with the same buffer to a concentration of 20 μM. For CD analysis each Rop variant was transferred to a 1 mm quartz cuvette. Wavelength and temperature dependent CD spectra were collected with an AVIV Biomedical, Inc. (Lakewood, NJ) Circular Dichroism Spectrometer Model 410. For wavelength-dependent spectra, initial scans were performed from 200 to 300 nm at 25° C. in 2 nm increments with an averaging time of 5 seconds. For temperature melt experiments, the signal was monitored at 222 nm with an averaging time of 5 seconds. Temperature melts were performed from 5 to 90° C. in 1° C. increments with equilibration for 2 minutes before each measurement. Following the temperature melt the sample was returned to 25° C. and the wavelength-dependent CD spectra was measured once more to assess the reversibility of the melt. Raw data (mdeg) were converted to molar ellipticity ([Θ], in deg*cm^2*dmol^−1) by
where M is the mean residual weight (116.00 g/mol for RopN, RopM, and RopC), L is the pathlength of the cuvette in centimeters, and C is the concentration of the sample in g/L.7 The melting temperature was determined by fitting the molar ellipticity as a function of temperature to a Boltzmann sigmoidal curve using GraphPad Prism (Version 7.04).
CD analysis of RopC-U and RopC-Z was performed as described for RopN, RopM, and RopC with the following modifications. Temperature melts were performed from 5 to 90° C. in 2.5° C. increments. Before measuring the temperature melt for RopC-Z, the protein was refolded by performing an initial melt from 5 to 90° C. in 2.5° C. increments as described.

[3] = Analytical size-exclusion chromatography of Rop variants; format: physicochemical; conditions: 50 μM
Method: To assess the homogeneity of isolated Rop variants, a solution of each protein was prepared (250 μg at 50 μM) in running buffer (10 mM phosphate, 100 mM NaCl, 150 µM TCEP, pH 7.0). A Superdex® 75 Increase 10/300 GL column (stored and operated at 4° C.) was washed with 2 column volumes (CV) of degassed and sterile filtered MilliQ water. The column was then equilibrated in running buffer for 2 CV. Each sample (500 μL) was applied to a 500 μL sample loop. The sample loop was washed with 2 mL of running buffer at 0.8 mL/min to load the sample onto the column. The sample was then eluted from the column by flowing running buffer at 0.8 mL/min for 1.30 CV. To assess column performance, a gel filtration standard (Bio-Rad Laboratories, Hercules, CA, catalog number 151-1901) containing 670 kDa, 158 kDa, 44 kDa, 17 kDa, and 1.35 kDa standards was used according to the manufacturer's instructions.

B1: MicD-F: constitutively activated cyclodehydratase, leader peptide fused to N-terminus of MicD, SEQ ID NO: 7 (protein, listed as Microcystis aeruginosa)
chain: MSHHHHHHDYDENLYFQGSRLTAGQLSSQLAELSEEALGDAGAGAGAGAGAKLMQSTPLLQIQPHFHVEVIEPKQVYLLGEQANYALTGQLYCQILPLLDGQHSREQIVEKLDGEVPSEYIDYVLDRLAEKGYLTEAAPELSSEVAAFWSELGIAPPVAAEALRQSVTLTPVGNISEVTVAALTTALRDIGISVQTPTEAGSPTALNVVLTDDYLQPELAKINKQALESQQTWLLVKPVGSVLWLGPVFVPGKTGCWDCLAHRLRGNREVEASVLQQKQAQQQRNGQSGSVIGCLPTARATLPSTLQTGLQFAATEIAKWIVKHHVKATAPGTVFFPTLDGKIITFNHTVIDLKSHVLVRRSQCPSCGDRQILHRQGFEPVKLVSRRKHFTHDGGHRAFTPEQTVQKYQHLVSPITGVVTELVRLTDPANPLVHTYKAGHAFGSATTLRGLRNTLKYKSSGKGKTDIQSRASGLCEAIERYSGIFQGDEPRKRATLAELGDLALHPESLLYFSNTQYANREELNAQGSAAAYRWIPNRFDVSQAIDWTPVWSLTEQKHKYVPTAFCYYGYPLPEEQRFCKADSNGNAAGNTLEEAILQGFLELVERDSIAMWWYNRIRRPAVDLSTFDEPYFVDLQQFYQQQNRELWVLDVTADLGIPAFAGFSRRTVGTSERISIGFGAHLDPTIAILRALTEVSQVGLELDKIPDDKLDGESKDWMLNVTVENHPWLAPDPSVPMKTASDYPKRWSDDIHTDVMNCVKTAQTAGLEVMVLDQTRPDIGLNVVKVIIPGMRTFWTRFGQGRLYDIPVKLGWLDAPLAEEELNQTNIPF
In the case of B1, the “highest temperature at which MicD-F remained stable” value [1] is reported as 42 °C.

B2: mCherry192+ (protein, listed as Discosoma sp.)
chain: MDYKDDDDKMVSKGEEDNMAIIKEFMRFKVHMEGSVNGHEFEIEGEGEGRPYEGTQTAKLKVTKGGPLPFAWDILSPQFMYGSKAYVKHPADIPDYLKLSFPEGFKWERVMNFEDGGVVTVTQDSSLQDGEFIYKVKLRGTNFPSDGPVMQKKTMGWEASSERMYPEDGALKGEIKQRLKLKDGGHYDAEVKTTYKAKKPVMCAYDGQLPGAYNVNIKLDITSHNEDYTIVEQYERAEGRHSTGGMDELYKHHHHHH
In the case of B2, the “cyclodehydration of mCherry variants to thiazoline (loss of water)” value (from here on “cyclodehydration … (loss of water)”) (MicD-F; pH 9.0, 37° C.) is reported as “no evidence of cyclodehydration” and the “cyclodehydration … (loss of water)” value (MicD-F; pH 9.0, 42° C.) is reported as “no evidence of cyclodehydration”.

B3: mCherry174+ (protein, listed as Discosoma sp.)
chain: MDYKDDDDKMVSKGEEDNMAIIKEFMRFKVHMEGSVNGHEFEIEGEGEGRPYEGTQTAKLKVTKGGPLPFAWDILSPQFMYGSKAYVKHPADIPDYLKLSFPEGFKWERVMNFEDGGVVTVTQDSSLQDGEFIYKVKLRGTNFPSDGPVMQKKTMGWEASSERMYPEDGALKGEIKQRLKLKDMCAYDGGGHYDAEVKTTYKAKKPVQLPGAYNVNIKLDITSHNEDYTIVEQYERAEGRHSTGGMDELYKHHHHHH
For B3, the “cyclodehydration … (loss of water)” value (MicD-F; pH 9.0, 37° C.) was “no evidence of cyclodehydration” and the “cyclodehydration … (loss of water)” value (MicD-F; pH 9.0, 42° C.) was “no evidence of cyclodehydration”.

B4: RopC: Rop variant with loop sequence GGGGMCAYDG, SEQ ID NO: 3 (protein, listed as Escherichia coli)
chain: MDYKDDDDKMTKQEKTALNMARFIRSQTLTLLEKLNELGGGGMCAYDGDEQADICESLHDHADELYRSCLARFGDDGENLHHHHHH
In the case of B4, the “cyclodehydration of Rop variants to thiazoline” value (from here on “cyclodehydration of Rop variants”) (MicD-F; pH 9.0, 37° C., 16 h) is reported as “clean conversion”, the “conversion of RopC into RopC-U” value (MicD-F; up to 50 μM MicD-F, 16 h, 25° C.) is reported as “minimal” and the “conversion to the thiazole-modified protein” value (MicD-F and ArtGox) is reported as “complete conversion”. For the same molecule, the “unfolding behaviour in temperature melt” value [2] was “melted cooperatively and reversibly”, the “TM (melting temperature)” value [2] was 28 °C and the “migration / homogeneity on SEC” value [3] was “discrete dimers”.

B5: RopM: Rop variant with loop sequence GGMCAYDGGG, SEQ ID NO: 2 (protein, listed as Escherichia coli)
chain: MDYKDDDDKMTKQEKTALNMARFIRSQTLTLLEKLNELGGMCAYDGGGDEQADICESLHDHADELYRSCLARFGDDGENLHHHHHH
For B5, the “cyclodehydration of Rop variants” value (MicD-F; pH 9.0, 37° C., 16 h) was “reacted partially”, the “unfolding behaviour in temperature melt” value [2] was “melted cooperatively and reversibly” and the “TM (melting temperature)” value [2] was 32 °C. The “migration / homogeneity on SEC” value [3] was “discrete dimers”.

B6: RopN: Rop variant with loop sequence MCAYDGGGGG, SEQ ID NO: 1 (protein, listed as Escherichia coli)
chain: MDYKDDDDKMTKQEKTALNMARFIRSQTLTLLEKLNELMCAYDGGGGGDEQADICESLHDHADELYRSCLARFGDDGENLHHHHHH
In the case of B6, the “cyclodehydration of Rop variants” value (MicD-F; pH 9.0, 37° C., 16 h) is reported as “unreactive”, the “unfolding behaviour in temperature melt” value [2] is reported as “melted non-cooperatively” and the “TM (melting temperature)” value [2] is reported as 43 °C. For the same molecule, the “migration / homogeneity on SEC” value [3] was “heterogeneous mixture”.
